In paper PMC3351189 (Nucleic Acids Research, 2012):

Each binder was assayed against WD-repeat protein-5 (WDR5), S22-334 (UniProt P61964 22-334) (assay: ITC).
In the case of GSARAEVHLRK [MLL1 Win motif peptide (MLL1Win)], the Kd is reported as 1130 nM.
GAARAEVYLRK [MLL4 Win motif peptide (MLL4Win)] showed a Kd of 30 nM.
Binder GCARSEPKILT [MLL2 Win motif peptide (MLL2Win)] has a Kd of 160 nM.
In the case of GSARAEPKMSA [MLL3 Win motif peptide (MLL3Win), C4708S substituted], the Kd is reported as 2030 nM.
GSARSEGYYPI [SET1A Win motif peptide (SET1AWin)] gave a Kd of 260 nM.
In the case of GCARSEGFYTI [SET1B Win motif peptide (SET1BWin)], the Kd is reported as 100 nM.
